Data on one molecule can be found in publication PMC5778809.

The target of the test is SELENOF’-YFP (human selenoprotein F with Sec changed to Cys, fused to enhanced yellow fluorescence protein) (human) (UniProt O60613). Kind of test: FRET or BRET; acceptor photobleaching in HEK293T cells co-transfected with pEYFP-N1 and pECFP-C1 constructs; YFP bleached at 515 nm, CFP read before and after; confocal microscope. On the technique in general: In BRET a luciferase serves as donor, and the signal depends on an acceptor being close.
Chain of UniProt O60613 (O60613 32-165): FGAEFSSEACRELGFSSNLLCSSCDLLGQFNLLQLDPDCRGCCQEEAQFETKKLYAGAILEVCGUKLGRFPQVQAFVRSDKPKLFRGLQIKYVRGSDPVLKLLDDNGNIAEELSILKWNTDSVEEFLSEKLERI

B1: CFP-RDH11 (human retinol dehydrogenase 11 fused to cyan fluorescence protein) (enzyme)
chain: VELMFPLLLLLLPFLLYMAAPQIRKMLSSGVCTSTVQLPGKVVVVTGANTGIGKETAKELAQRGARVYLACRDVEKGELVAKEIQTTTGNQQVLVRKLDLSDTKSIRAFAKGFLAEEKHLHVLINNAGVMMCPYSKTADGFEMHIGVNHLGHFLLTHLLLEKLKESAPSRIVNVSSLAHHLGRIHFHNLQGEKFYNAGLAYCHSKLANILFTQELARRLKGSGVTTYSVHPGTVQSELVRHSSFMRWMWWLFSFFIKTPQQGAQTSLHCALTEGLEILSGNHFSDCHVAWVSAQARNETIARRLWDVSCDLLGLPID
As for B1, the FRET energy transfer efficiency is 29.2%; the estimated distance between donor and acceptor (FRET) is 5.51 nm.
